Experimental data: PMC10085679, “Filament assembly underpins the double-stranded DNA specificity of AIM2-like receptors”

T1: AIM2HIN (Homo sapiens, UniProt O14862 144-343)
T1 sequence: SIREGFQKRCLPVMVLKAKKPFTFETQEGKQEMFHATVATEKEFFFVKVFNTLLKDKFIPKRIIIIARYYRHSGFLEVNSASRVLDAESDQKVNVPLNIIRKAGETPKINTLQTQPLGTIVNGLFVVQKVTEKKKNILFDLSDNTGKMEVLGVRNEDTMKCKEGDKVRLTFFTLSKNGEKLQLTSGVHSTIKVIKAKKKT

T2: AIM2FL (Homo sapiens, UniProt O14862 1-343)
T2 sequence: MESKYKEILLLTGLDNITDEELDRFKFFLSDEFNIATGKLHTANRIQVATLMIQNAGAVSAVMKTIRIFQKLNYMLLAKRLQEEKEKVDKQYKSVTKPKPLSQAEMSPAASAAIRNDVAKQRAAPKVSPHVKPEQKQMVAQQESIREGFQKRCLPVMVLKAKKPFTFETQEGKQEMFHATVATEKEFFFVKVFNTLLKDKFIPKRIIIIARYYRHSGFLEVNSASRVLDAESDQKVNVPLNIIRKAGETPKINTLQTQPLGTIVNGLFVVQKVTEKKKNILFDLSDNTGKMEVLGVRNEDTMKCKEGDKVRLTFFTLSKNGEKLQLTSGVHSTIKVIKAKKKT

B1: 60-base ssRNA_U (ssRNA)
RNA: UUUCUUUCUUUCUUUCUUUCUUUCUUUCUUUCUUUCUUUCUUUCUUUCUUUCUUUCUUUC
B2: 60-bp dsDNA (dsDNA)
DNA 1: TAAGACACGATGCGATAAAATCTGTTTGTAAAATTTATTAAGGGTACAAATTGCCCTAGC
DNA 2: GCTAGGGCAATTTGTACCCTTAATAAATTTTACAAACAGATTTTATCGCATCGTGTCTTA
B3: 60-bp dsRNA (dsRNA)
RNA 1: UAAGACACGAUGCGAUAAAAUCUGUUUGUAAAAUUUAUUAAGGGUACAAAUUGCCCUAGC
RNA 2: GCUAGGGCAAUUUGUACCCUUAAUAAAUUUUACAAACAGAUUUUAUCGCAUCGUGUCUUA
B4: 60-base ssDNA_T (ssDNA)
DNA: TTTCTTTCTTTCTTTCTTTCTTTCTTTCTTTCTTTCTTTCTTTCTTTCTTTCTTTCTTTC
B5: 24-bp dsDNA (dsDNA)
DNA 1: TAAGACACGATGCGATAAAATCTG
DNA 2: CAGATTTTATCGCATCGTGTCTTA
B6: 24-bp DNA:RNA hybrid (DNA:RNA)
DNA: TAAGACACGATGCGATAAAATCTG
RNA: CAGAUUUUAUCGCAUCGUGUCUUA
B7: 60-base ssDNA_A (ssDNA)
DNA: AAAGAAAGAAAGAAAGAAAGAAAGAAAGAAAGAAAGAAAGAAAGAAAGAAAGAAAGAAAG
B8: 60-base ssRNA_A (ssRNA)
RNA: B7 DNA
B9: 24-bp dsRNA (dsRNA)
RNA 1: UAAGACACGAUGCGAUAAAAUCUG
RNA 2: CAGAUUUUAUCGCAUCGUGUCUUA

How the values were obtained:
AIM2HIN [1] = molecular target: T1, AIM2HIN; assay: competition fluorescence anisotropy; unlabelled competitor against 6 nM 24-bp FAM-dsDNA, 625 nM protein; 160 mM KCl (60 mM KCl for IFI16HinAB); buffer, pH and temperature not given in the available text; settings: protein: recombinant
IFI16FL [2] = molecular target: T3, IFI16FL (Homo sapiens, UniProt Q16666-2 1-729); assay: competition fluorescence anisotropy; unlabelled competitor against 6 nM 24-bp FAM-dsDNA, 500 nM protein; 160 mM KCl (60 mM KCl for IFI16HinAB); buffer, pH and temperature not given in the available text; settings: protein: recombinant, tags: C-terminal His6
T3 sequence (Q16666 other isoform, or with tags, fused parts or gaps): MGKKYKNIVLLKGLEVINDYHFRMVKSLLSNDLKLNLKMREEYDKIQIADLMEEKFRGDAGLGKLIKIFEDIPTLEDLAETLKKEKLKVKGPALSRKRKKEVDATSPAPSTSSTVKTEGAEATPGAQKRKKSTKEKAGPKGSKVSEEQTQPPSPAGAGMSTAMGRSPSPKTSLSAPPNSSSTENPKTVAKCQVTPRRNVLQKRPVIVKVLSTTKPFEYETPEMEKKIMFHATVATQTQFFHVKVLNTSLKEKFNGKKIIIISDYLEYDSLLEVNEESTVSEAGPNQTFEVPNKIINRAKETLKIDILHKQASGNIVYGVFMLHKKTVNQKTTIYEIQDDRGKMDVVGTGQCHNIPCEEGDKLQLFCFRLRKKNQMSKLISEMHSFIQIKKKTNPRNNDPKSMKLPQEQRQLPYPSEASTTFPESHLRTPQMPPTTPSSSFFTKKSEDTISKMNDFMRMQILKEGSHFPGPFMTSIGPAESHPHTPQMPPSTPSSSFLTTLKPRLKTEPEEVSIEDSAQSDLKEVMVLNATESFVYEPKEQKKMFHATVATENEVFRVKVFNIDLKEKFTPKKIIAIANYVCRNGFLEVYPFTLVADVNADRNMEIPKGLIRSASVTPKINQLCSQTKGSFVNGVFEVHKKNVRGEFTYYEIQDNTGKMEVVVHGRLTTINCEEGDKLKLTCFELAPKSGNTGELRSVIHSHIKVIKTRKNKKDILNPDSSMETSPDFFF

AIM2HIN [3] = molecular target: T1, AIM2HIN; assay: competition fluorescence anisotropy; unlabelled competitor against 6 nM 60-bp FAM-dsDNA, 400 nM protein; 160 mM KCl (60 mM KCl for IFI16HinAB); buffer, pH and temperature not given in the available text; settings: protein: recombinant
IFI16FL [4] = molecular target: T3, IFI16FL; assay: competition fluorescence anisotropy; unlabelled competitor against 6 nM 60-bp FAM-dsDNA, 100 nM protein; 160 mM KCl (60 mM KCl for IFI16HinAB); buffer, pH and temperature not given in the available text; settings: protein: recombinant, tags: C-terminal His6
IFI16HinAB [5] = molecular target: T4, IFI16HinAB (Homo sapiens, UniProt Q16666-2 159-729); assay: competition fluorescence anisotropy; unlabelled competitor against 6 nM 24-bp FAM-dsDNA, 1000 nM protein; 160 mM KCl (60 mM KCl for IFI16HinAB); buffer, pH and temperature not given in the available text; settings: protein: recombinant
T4 sequence (Q16666 other isoform, or with tags, fused parts or gaps): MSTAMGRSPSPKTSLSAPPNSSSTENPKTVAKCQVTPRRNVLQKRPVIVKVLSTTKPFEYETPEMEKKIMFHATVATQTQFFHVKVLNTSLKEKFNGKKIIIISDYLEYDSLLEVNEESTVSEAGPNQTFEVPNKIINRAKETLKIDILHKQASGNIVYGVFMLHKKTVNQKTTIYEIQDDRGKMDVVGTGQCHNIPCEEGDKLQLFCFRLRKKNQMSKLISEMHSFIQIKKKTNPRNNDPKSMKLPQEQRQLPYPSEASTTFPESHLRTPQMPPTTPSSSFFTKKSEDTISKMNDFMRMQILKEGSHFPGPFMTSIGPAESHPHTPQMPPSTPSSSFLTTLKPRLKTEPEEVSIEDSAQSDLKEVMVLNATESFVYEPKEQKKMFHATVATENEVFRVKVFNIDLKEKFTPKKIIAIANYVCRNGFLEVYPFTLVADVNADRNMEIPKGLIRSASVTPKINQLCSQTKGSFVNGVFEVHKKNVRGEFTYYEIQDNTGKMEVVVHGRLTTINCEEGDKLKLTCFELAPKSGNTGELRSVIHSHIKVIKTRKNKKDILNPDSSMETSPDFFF

IFI16HinAB [6] = molecular target: T4, IFI16HinAB; assay: fluorescence anisotropy; 160 mM KCl (60 mM KCl for IFI16HinAB); buffer, pH and temperature not given in the available text; settings: protein: recombinant
AIM2FL [7] = molecular target: T2, AIM2FL; assay: as above; settings: protein: recombinant
AIM2HIN [8] = molecular target: T1, AIM2HIN; assay: as above; settings: protein: recombinant
IFI16FL [9] = molecular target: T3, IFI16FL; assay: as above; settings: protein: recombinant; tags: C-terminal His6
AIM2FL [10] = molecular target: T2, AIM2FL; assay: fluorescence anisotropy; 160 mM KCl; 60 mM KCl for IFI16HinAB; FAM probe 3-6 nM (FA) or 20 nM (EMSA); binding buffer pH and temperature not in the material; settings: protein: recombinant
IFI16FL [11] = molecular target: T3, IFI16FL; assay: as above; settings: protein: recombinant; tags: C-terminal His6
AIM2FL [12] = molecular target: T2, AIM2FL; assay: competition fluorescence anisotropy; unlabelled competitor against 6 nM 24-bp FAM-dsDNA, 100 nM protein; 160 mM KCl (60 mM KCl for IFI16HinAB); buffer, pH and temperature not given in the available text; settings: protein: recombinant
AIM2FL [13] = molecular target: T2, AIM2FL; assay: fluorescence anisotropy; upper-limit estimate; 160 mM KCl; 60 mM KCl for IFI16HinAB; FAM probe 3-6 nM (FA) or 20 nM (EMSA); binding buffer pH and temperature not in the material; settings: protein: recombinant
IFI16HinAB [14] = molecular target: T4, IFI16HinAB; assay: competition fluorescence anisotropy; unlabelled competitor against 6 nM 60-bp FAM-dsDNA, 400 nM protein; 160 mM KCl (60 mM KCl for IFI16HinAB); buffer, pH and temperature not given in the available text; settings: protein: recombinant
IFI16FL [15] = molecular target: T3, IFI16FL; assay: fluorescence anisotropy; printed 0.003*, upper-limit estimate; 160 mM KCl; 60 mM KCl for IFI16HinAB; FAM probe 3-6 nM (FA) or 20 nM (EMSA); binding buffer pH and temperature not in the material; settings: protein: recombinant; tags: C-terminal His6
AIM2FL [16] = molecular target: T2, AIM2FL; assay: competition fluorescence anisotropy; unlabelled competitor against 6 nM 60-bp FAM-dsDNA, 60 nM protein; 160 mM KCl (60 mM KCl for IFI16HinAB); buffer, pH and temperature not given in the available text; settings: protein: recombinant
IFI16HinAB [17] = molecular target: T4, IFI16HinAB; assay: EMSA; low salt; 160 mM KCl; 60 mM KCl for IFI16HinAB; FAM probe 3-6 nM (FA) or 20 nM (EMSA); binding buffer pH and temperature not in the material; settings: protein: recombinant; label: FAM
IFI16HinAB [18] = molecular target: T4, IFI16HinAB; assay: EMSA; apparent KD <=250 nM; low salt; 160 mM KCl; 60 mM KCl for IFI16HinAB; FAM probe 3-6 nM (FA) or 20 nM (EMSA); binding buffer pH and temperature not in the material; settings: protein: recombinant; label: FAM
IFI16HinAB [19] = molecular target: T4, IFI16HinAB; assay: EMSA; apparent KD >=1 uM; low salt; 160 mM KCl; 60 mM KCl for IFI16HinAB; FAM probe 3-6 nM (FA) or 20 nM (EMSA); binding buffer pH and temperature not in the material; settings: protein: recombinant; label: FAM
AIM2HIN [20] = molecular target: T1, AIM2HIN; assay: fluorescence anisotropy; 160 mM KCl; 60 mM KCl for IFI16HinAB; FAM probe 3-6 nM (FA) or 20 nM (EMSA); binding buffer pH and temperature not in the material; settings: protein: recombinant
IFI16HinAB [21] = molecular target: T4, IFI16HinAB; assay: fluorescence anisotropy; 60 mM KCl; 160 mM KCl; 60 mM KCl for IFI16HinAB; FAM probe 3-6 nM (FA) or 20 nM (EMSA); binding buffer pH and temperature not in the material; settings: protein: recombinant

Binder	IC50 (AIM2HIN [1]) [nM]	IC50 (AIM2HIN [3]) [nM]	IC50 (IFI16HinAB [5]) [nM]	Kd (IFI16HinAB [6]) [nM]	Kd (AIM2FL [7]) [nM]	Kd (AIM2HIN [8]) [nM]	Kd (AIM2FL [10]) [nM]	Kd (IFI16FL [11]) [nM]	IC50 (AIM2FL [12]) [nM]	IC50 (IFI16HinAB [14]) [nM]	Kd (AIM2HIN [8]; label: FAM) [nM]	further results
B1	219 ± 33.5	741 ± 70.3	733 ± 48.5	30 ± 10	80 ± 20	300 ± 100	80 ± 20	78 ± 11	273 ± 171			IC50 (IFI16FL [2]): 305 ± 48.5 nM; IC50 (IFI16FL [4]): 1120 ± 75.5 nM; Kd (IFI16FL [9]): 78 ± 11 nM
B2	19.7 ± 1.9	268 ± 8.4	289 ± 37.3	20 ± 10		600 ± 100			11.8 ± 0.3	258 ± 24.9		IC50 (IFI16FL [2]; chain copies: 4): 331 ± 29.8 nM; Kd (AIM2FL [13]): < 3 nM; IC50 (IFI16FL [4]; chain copies: 4): 627 ± 132 nM; Kd (IFI16FL [15]): < 3 nM; IC50 (AIM2FL [16]): 142 ± 8.5 nM
B3	92.9 ± 2.8	281 ± 53.1	1130 ± 61.7	30 ± 10	50 ± 10	1100 ± 200	50 ± 10	85 ± 7	69.7 ± 6.7	1430 ± 366		IC50 (IFI16FL [2]): 490 ± 40.3 nM; IC50 (IFI16FL [4]): 1070 ± 132 nM; Kd (IFI16FL [9]): 85 ± 7 nM
UUUCUUUCUUUCUUUCUUUCUUUC (ssRNA) [24-base ssRNA_U]											210 ± 60	Kd (IFI16HinAB [17]): ~500 nM
B4	113 ± 7.3	1000 ± 259	828 ± 155	70 ± 20	320 ± 80	400 ± 100	320 ± 80	22 ± 4	165 ± 7.3	1390 ± 137		IC50 (IFI16FL [2]): 644 ± 133 nM; Kd (IFI16FL [9]): 22 ± 4 nM
B5											900 ± 200	Kd (IFI16HinAB [18]): < 250 nM; Kd (AIM2FL [7]; label: FAM): 80 ± 20 nM
B6											900 ± 100	Kd (IFI16HinAB [18]): < 250 nM
AAAGAAAGAAAGAAAGAAAGAAAG (ssRNA) [24-base ssRNA_A]												Kd (IFI16HinAB [17]): ~500 nM
TTTCTTTCTTTCTTTCTTTCTTTC (ssDNA) [24-base ssDNA_T]											1200 ± 200	Kd (IFI16HinAB [19]): > 1000 nM
B7	134 ± 16.6				150 ± 30	2700 ± 100	150 ± 30	150 ± 20	58.9 ± 6.7	3010		Kd (AIM2HIN [20]): 2700 ± 100 nM; Kd (IFI16HinAB [21]): 500 ± 200 nM
B8	132.8 ± 0.4	1230 ± 483			400 ± 100	1400 ± 200	400 ± 100		46.1 ± 2.7	1970 ± 90		IC50 (IFI16FL [4]): 166 ± 18 nM; IC50 (AIM2FL [16]): 1020 ± 130 nM
B9											1200 ± 200	Kd (IFI16HinAB [19]): > 1000 nM
AAAGAAAGAAAGAAAGAAAGAAAG (ssDNA) [24-base ssDNA_A]												Kd (IFI16HinAB [19]): > 1000 nM; Kd (AIM2HIN [20]; label: FAM): 5700 ± 700 nM
